Measured values as given in the supplement of paper PMC9732359.
± gives the uncertainty stated by the source.

Experiment: protein stability index of a GFP-peptide fusion (yeast GPS) (PSI 1-4); higher = more stable; sorted into four equal gates, so the index is relative within each strain
Outline: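 Each library plasmid carries Cherry plus GFP with a tiled 17-residue yeast protein peptide fused downstream, and the pooled library was carried in yeast. Mid-log cultures in leucine-free medium were sorted into four equal gates by GFP/Cherry ratio. Reads from Illumina sequencing of PCR-amplified plasmids from each gate were assigned to strains by barcodes. Per peptide, the protein stability index was computed as the summed products of gate read frequency and gate number.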

VKNTNANPVVATDPVAA [SWP82]
protein stability index (doa10∆): 2 ± 0.1
protein stability index (pdr5∆): 2.91 ± 0.1
protein stability index (san1∆): 2.5 ± 0.091
protein stability index (ubr1∆): 2.47 ± 0.061

VKRYRLAPTQLSAEYLV [SIN4]
protein stability index (doa10∆): 2.44 ± 0.062
protein stability index (pdr5∆): 2.23 ± 0.056
protein stability index (san1∆): 2.3 ± 0.067
protein stability index (ubr1∆): 2.71 ± 0.043

VKSVNDPSQNRLTGSLL [RPC37]
protein stability index (doa10∆): 3.16 ± 0.089
protein stability index (pdr5∆): 3.48 ± 0.11
protein stability index (san1∆): 3.04 ± 0.11
protein stability index (ubr1∆): 3.08 ± 0.048

VKWVHMIIDEGHRMKNA [SNF2]
protein stability index (doa10∆): 1.81 ± 0.12
protein stability index (pdr5∆): 1.91 ± 0.075
protein stability index (san1∆): 1.77 ± 0.13
protein stability index (ubr1∆): 3.11 ± 0.2

VLADALNAINNAEKTGK [RPS22A]
protein stability index (doa10∆): 2.92 ± 0.056
protein stability index (pdr5∆): 3.27 ± 0.059
protein stability index (san1∆): 2.67 ± 0.06
protein stability index (ubr1∆): 2.97 ± 0.049

VLEDCRHLPMYTEFIDS [ITC1]
protein stability index (doa10∆): 2.34 ± 0.1
protein stability index (pdr5∆): 2.71 ± 0.075
protein stability index (san1∆): 2.77 ± 0.12
protein stability index (ubr1∆): 2.99 ± 0.066

VLGTPDQKIWPYLEKYP [SSN3]
protein stability index (doa10∆): 2.42 ± 0.077
protein stability index (pdr5∆): 1.72 ± 0.053
protein stability index (san1∆): 2.3 ± 0.068
protein stability index (ubr1∆): 2.13 ± 0.059

VLIKKGQSAGKLAAIVE [RPL14A]
protein stability index (doa10∆): 2.99 ± 0.2
protein stability index (pdr5∆): 3.14 ± 0.16
protein stability index (ubr1∆): 2.77 ± 0.18

VLKTLEYKLATYGVPGS [NUT1]
protein stability index (doa10∆): 2.75 ± 0.068
protein stability index (pdr5∆): 2.54 ± 0.066
protein stability index (san1∆): 3.27 ± 0.045
protein stability index (ubr1∆): 2.18 ± 0.08

VLLVEKYGAEYDLVDNK [NAS6]
protein stability index (doa10∆): 1.9 ± 0.22
protein stability index (san1∆): 3 ± 0.22
protein stability index (ubr1∆): 3 ± 0.19

VLNEDDLAFGGEANKHH [RPN5]
protein stability index (doa10∆): 3.25 ± 0.09
protein stability index (pdr5∆): 3.13 ± 0.089
protein stability index (san1∆): 3.25 ± 0.057
protein stability index (ubr1∆): 3.48 ± 0.12

VLSINPDMYERKVENIR [MED7]
protein stability index (doa10∆): 2.81 ± 0.08
protein stability index (pdr5∆): 3.03 ± 0.086
protein stability index (san1∆): 2.79 ± 0.052
protein stability index (ubr1∆): 2.79 ± 0.062

VLSQFERSYPSEFANQN [ROX3]
protein stability index (doa10∆): 2.26 ± 0.098
protein stability index (pdr5∆): 3.15 ± 0.097
protein stability index (san1∆): 2.63 ± 0.15
protein stability index (ubr1∆): 2.78 ± 0.11

VLSSVREPDFWVIRKQR [MED6]
protein stability index (doa10∆): 3.52 ± 0.12
protein stability index (pdr5∆): 3.44 ± 0.1
protein stability index (san1∆): 3.54 ± 0.12
protein stability index (ubr1∆): 3.11 ± 0.12

VLTGGYLDQHKRTRLES [SMC3]
protein stability index (doa10∆): 2.26 ± 0.17
protein stability index (pdr5∆): 2.04 ± 0.23
protein stability index (san1∆): 1.19 ± 0.16
protein stability index (ubr1∆): 2.62 ± 0.26

VLTNIEVYRTSLNTKKN [SMC3]
protein stability index (doa10∆): 2.61 ± 0.17
protein stability index (pdr5∆): 3.08 ± 0.19
protein stability index (ubr1∆): 2.85 ± 0.12

VLTRMDEDRSKKEEELG [SNF2]
protein stability index (doa10∆): 3.51 ± 0.11
protein stability index (pdr5∆): 3.22 ± 0.1
protein stability index (san1∆): 3.38 ± 0.071
protein stability index (ubr1∆): 3.27 ± 0.084

VLVLHGDKDTRADIVRN [ISW2]
protein stability index (doa10∆): 3.02 ± 0.063
protein stability index (pdr5∆): 3.17 ± 0.063
protein stability index (san1∆): 2.9 ± 0.078
protein stability index (ubr1∆): 3.06 ± 0.054

VLVVRGSKKGQEGKISS [RPL26A]
protein stability index (doa10∆): 3.54 ± 0.085
protein stability index (pdr5∆): 3.19 ± 0.099
protein stability index (san1∆): 3.06 ± 0.068
protein stability index (ubr1∆): 3.44 ± 0.084

VLYYRDARSSRNFSLAI [PRE4]
protein stability index (doa10∆): 2.85 ± 0.14
protein stability index (pdr5∆): 2.63 ± 0.12
protein stability index (san1∆): 1.99 ± 0.15
protein stability index (ubr1∆): 2.39 ± 0.085

VNASVDVDQHGNDNNSD [SWI3]
protein stability index (doa10∆): 3.13 ± 0.085
protein stability index (pdr5∆): 3.46 ± 0.081
protein stability index (san1∆): 3.52 ± 0.059
protein stability index (ubr1∆): 3.3 ± 0.038

VNKVPQNVAGDKTAVKL [SWP82]
protein stability index (doa10∆): 2.71 ± 0.16
protein stability index (pdr5∆): 3.04 ± 0.11
protein stability index (san1∆): 2.8 ± 0.096
protein stability index (ubr1∆): 3.07 ± 0.071

VNLEDNTQDLLLLLSLF [YML103C/NUP188]
protein stability index (doa10∆): 1.68 ± 0.13
protein stability index (pdr5∆): 2.7 ± 0.12
protein stability index (san1∆): 2.41 ± 0.14
protein stability index (ubr1∆): 2.47 ± 0.091

VNLSEVMTVPGIDPTRI [RPO21]
protein stability index (doa10∆): 2.92 ± 0.083
protein stability index (pdr5∆): 3.07 ± 0.094
protein stability index (san1∆): 3.11 ± 0.05
protein stability index (ubr1∆): 3.05 ± 0.064

VNRQSPLFFVDLKLLFN [RGR1]
protein stability index (doa10∆): 1.53 ± 0.065
protein stability index (pdr5∆): 1.54 ± 0.074
protein stability index (san1∆): 1.29 ± 0.13
protein stability index (ubr1∆): 1.23 ± 0.11

VNTMGTGGQTIDNGTGR [MED6]
protein stability index (doa10∆): 3.27 ± 0.14
protein stability index (pdr5∆): 3.06 ± 0.24
protein stability index (san1∆): 3.19 ± 0.077
protein stability index (ubr1∆): 3.19 ± 0.073

VPFESLQGVTYPVLRKL [YIL149C/MLP2]
protein stability index (doa10∆): 2.82 ± 0.11
protein stability index (pdr5∆): 2.56 ± 0.075
protein stability index (san1∆): 2.32 ± 0.12
protein stability index (ubr1∆): 2.27 ± 0.068

VPFIIAAMVIMHLMALH [COB]
protein stability index (doa10∆): 2.08 ± 0.055
protein stability index (pdr5∆): 1.31 ± 0.055
protein stability index (san1∆): 1.79 ± 0.16
protein stability index (ubr1∆): 1.43 ± 0.041

VPIERVAQLKPFFKYID [RPC37]
protein stability index (doa10∆): 2.54 ± 0.062
protein stability index (pdr5∆): 2.24 ± 0.054
protein stability index (san1∆): 2.34 ± 0.054
protein stability index (ubr1∆): 2.71 ± 0.052

VPLSDNAIIEANLGKYG [RPL7A]
protein stability index (doa10∆): 2.29 ± 0.073
protein stability index (pdr5∆): 2.25 ± 0.074
protein stability index (san1∆): 2.45 ± 0.074
protein stability index (ubr1∆): 2.28 ± 0.075

VPLTKRYQHLEKITQIS [PCI8]
protein stability index (doa10∆): 2.39 ± 0.28
protein stability index (pdr5∆): 2.22 ± 0.11
protein stability index (ubr1∆): 1.71 ± 0.096

VPNYEVSEKAFLLTQSK [RPN7]
protein stability index (doa10∆): 3.17 ± 0.18
protein stability index (pdr5∆): 3.47 ± 0.24
protein stability index (ubr1∆): 2.75 ± 0.14

VPPINCIFNFLQQQTPV [SME1]
protein stability index (doa10∆): 1.34 ± 0.042
protein stability index (pdr5∆): 1.58 ± 0.035
protein stability index (san1∆): 1.49 ± 0.065
protein stability index (ubr1∆): 1.64 ± 0.042

VPSAKPLILTPPQLANQ [SNF11]
protein stability index (doa10∆): 2.63 ± 0.049
protein stability index (pdr5∆): 2.26 ± 0.052
protein stability index (san1∆): 2.64 ± 0.052
protein stability index (ubr1∆): 2.03 ± 0.033

VPSPTGEYVKEPEWVLE [RPO21]
protein stability index (doa10∆): 3 ± 0.11
protein stability index (pdr5∆): 3.07 ± 0.12
protein stability index (san1∆): 2.85 ± 0.28
protein stability index (ubr1∆): 3.15 ± 0.062

VPTIGVVNSNFAKEHNA [YJR042W/NUP85]
protein stability index (doa10∆): 2.51 ± 0.072
protein stability index (pdr5∆): 2.61 ± 0.075
protein stability index (san1∆): 2.59 ± 0.058
protein stability index (ubr1∆): 2.54 ± 0.034

VPTKIARGTIEIVSDVK [RPP0]
protein stability index (doa10∆): 2.26 ± 0.25
protein stability index (pdr5∆): 2.38 ± 0.055
protein stability index (san1∆): 2 ± 0.17

VPVIESAGFETDLRLST [SNU114]
protein stability index (doa10∆): 3.14 ± 0.21
protein stability index (pdr5∆): 3.12 ± 0.23
protein stability index (ubr1∆): 3.17 ± 0.14

VQEMALGGPITKESQPT [FAS2]
protein stability index (doa10∆): 2.78 ± 0.099
protein stability index (pdr5∆): 2.72 ± 0.078
protein stability index (san1∆): 2.87 ± 0.065
protein stability index (ubr1∆): 3.01 ± 0.05

VQGAAPWDTSLEVGRRF [MCD1]
protein stability index (doa10∆): 3.48 ± 0.13
protein stability index (pdr5∆): 3.39 ± 0.13
protein stability index (san1∆): 3.28 ± 0.088
protein stability index (ubr1∆): 3.43 ± 0.16

VQGMNDDIFIRYLTLLS [ECM29]
protein stability index (doa10∆): 1.37 ± 0.053
protein stability index (pdr5∆): 1.39 ± 0.057
protein stability index (san1∆): 1.8 ± 0.14
protein stability index (ubr1∆): 1.15 ± 0.031

VQKILPLSNEVFEISEN [SWI1]
protein stability index (doa10∆): 2.13 ± 0.043
protein stability index (pdr5∆): 1.85 ± 0.039
protein stability index (san1∆): 1.73 ± 0.06
protein stability index (ubr1∆): 2.17 ± 0.035

VQNLRSWETKLKQNILE [CSN9]
protein stability index (doa10∆): 1.83 ± 0.077
protein stability index (pdr5∆): 2.04 ± 0.094
protein stability index (san1∆): 2.3 ± 0.11
protein stability index (ubr1∆): 1.82 ± 0.083

VQVSKAGGLPMDALTLM [RRP45]
protein stability index (doa10∆): 1.28 ± 0.12
protein stability index (pdr5∆): 1.23 ± 0.18
protein stability index (san1∆): 1.1 ± 0.2
protein stability index (ubr1∆): 1.08 ± 0.14

VRAEELNISGEFFRNKL [RPL16A]
protein stability index (doa10∆): 3.67 ± 0.21
protein stability index (pdr5∆): 3.17 ± 0.23
protein stability index (san1∆): 3.07 ± 0.18
protein stability index (ubr1∆): 3.36 ± 0.2

VREFLEKNYDRKEPPAT [PRE6]
protein stability index (doa10∆): 3.29 ± 0.13
protein stability index (pdr5∆): 3.28 ± 0.1
protein stability index (san1∆): 3.11 ± 0.071
protein stability index (ubr1∆): 3.3 ± 0.068

VREYEQPDANKKKRSRT [ISW2]
protein stability index (doa10∆): 3.13 ± 0.14
protein stability index (pdr5∆): 3.31 ± 0.12
protein stability index (san1∆): 3.25 ± 0.13
protein stability index (ubr1∆): 3.29 ± 0.11

VRIDLGTIDKLQLELTI [RPO31]
protein stability index (doa10∆): 1.99 ± 0.049
protein stability index (pdr5∆): 2.21 ± 0.052
protein stability index (san1∆): 2.5 ± 0.053
protein stability index (ubr1∆): 2.91 ± 0.042

VRLQRQKKILSIRLKVP [RPL8B]
protein stability index (doa10∆): 1.5 ± 0.032
protein stability index (pdr5∆): 1.29 ± 0.032
protein stability index (san1∆): 1.27 ± 0.055
protein stability index (ubr1∆): 1.25 ± 0.025

VRPSISFNESQRGEDDL [RPO21]
protein stability index (doa10∆): 2.49 ± 0.078
protein stability index (pdr5∆): 2.81 ± 0.088
protein stability index (san1∆): 2.75 ± 0.093
protein stability index (ubr1∆): 2.68 ± 0.083

VRSFSKALDELKPEIEK [LRP1]
protein stability index (doa10∆): 3.39 ± 0.088
protein stability index (pdr5∆): 3.39 ± 0.074
protein stability index (san1∆): 3.31 ± 0.052
protein stability index (ubr1∆): 3.22 ± 0.064

VSCYRPRRDGERKRKSV [RPS6A]
protein stability index (doa10∆): 1.79 ± 0.22
protein stability index (pdr5∆): 2.91 ± 0.17
protein stability index (san1∆): 3.51 ± 0.13
protein stability index (ubr1∆): 3.38 ± 0.082

VSDSNDDVRRAAVIALG [RPN2]
protein stability index (doa10∆): 3.26 ± 0.1
protein stability index (pdr5∆): 3.26 ± 0.13
protein stability index (san1∆): 2.7 ± 0.17
protein stability index (ubr1∆): 3.42 ± 0.14
